{"source": "patent EP4431526A1", "about": "(Emfret Analytics GmbH & Co. KG, dated 2024)", "binders": {"B1": {"name": "Emf6.1^Fab (Fab, V domains shown)", "VH": "QVQLKESGPGLVQPSQSLSITCTVSGFSLTSYGVTWVRQPPGKGLEWLGVIWGDGSTNYHSGLRSRLSISRDDSKSQVFLKLNSLQTDDTATYYCAKPIYYDFDDDAMDYWGQGTSVTVSS", "VL": "DIVMTQSQKFMSTSVGDRVSVTCKASQNVGTYVAWFQQKPGQSPKTLIYSASYRCSGVPDRFTGSGSGTDFTLTISNVQSDDLAEYFCHQYNNYPLTFGAGTKLELR", "notes": "also called Fab fragments of Emf6.1"}, "B2": {"name": "Emf6.1 IgG (mouse IgG2a kappa) (antibody, V domains shown)", "VH": "QVQLKESGPGLVQPSQSLSITCTVSGFSLTSYGVTWVRQPPGKGLEWLGVIWGDGSTNYHSGLRSRLSISRDDSKSQVFLKLNSLQTDDTATYYCAKPIYYDFDDDAMDYWGQGTSVTVSS", "VL": "DIVMTQSQKFMSTSVGDRVSVTCKASQNVGTYVAWFQQKPGQSPKTLIYSASYRCSGVPDRFTGSGSGTDFTLTISNVQSDDLAEYFCHQYNNYPLTFGAGTKLELR", "notes": "Mouse monoclonal IgG2a kappa from hybridoma (subclone of Emf6)"}, "B3": {"name": "HC1 LC2 humanized Fab (EMA601) (Fab, V domains shown)", "VH": "QVQLQESGPGLVKPSETLSLTCTASGFSLTSYGVTWIRQPPGKGLEWIGVIWGDGSTNYHSGLRSRVTISVDTSKSQFSLKLSSVTAADTAVYYCAKPIYYDFDDDAMDYWGQGTLVTVSS", "VL": "DIQMTQSPSSLSASVGDRVTITCKASQNVGTYVAWFQQRPGKAPKSLIYSASYRCSGVPSKFSGSGSGTDFTLTINSLQPEDFATYYCHQYNNYPLTFGQGTKVEIKR", "notes": "also called EMF601; VH1:VL2"}, "B4": {"name": "HC4 LC3 humanized Fab (Fab, V domains shown)", "VH": "QVQLVESGGGVVQPGRSLRLSCAASGFSLTSYGVTWVRQSPGKGLEWVAVIWGDGSTNYHSGLRSRLTISRDNSKNTLYLEMNSLRTEDTATYYCAKPIYYDFDDDAMDYWGQGTKVTVSS", "VL": "DIQLTQSPSTLSASVGDRVTITCKASQNVGTYVAWYQQKPGKAPKLLIYSASYRCSGVPSRFSGSGSGTEFTLTISSLQPDDFTTYYCHQYNNYPLTFGQGTKVEIKR", "notes": "also called VH4:VL3"}}, "key": {"[1]": {"molecular_target": "human GPVI, membrane expressed on platelets (human) (UniProt Q9HCN6)", "experiment": "flow cytometry ex vivo, hGP6^tg/tg platelets, competition with Emf3-FITC, 24 h after 4 mg/kg i.v."}, "[2]": {"molecular_target": "human GPVI, membrane expressed on platelets (human) (UniProt Q9HCN6)", "experiment": "cell-based or functional assay"}, "[3]": {"molecular_target": "human GPVI, membrane expressed on platelets (human) (UniProt Q9HCN6)", "experiment": "flow cytometry ex vivo, hGP6^tg/tg platelets, competition with Emf3-FITC, 120 h after 4 mg/kg i.v."}, "[4]": {"molecular_target": "human GPVI, membrane expressed on platelets (human) (UniProt Q9HCN6)", "experiment": "flow cytometry ex vivo, hGP6^tg/tg platelets, competition with Emf3-FITC, 72 h after 4 mg/kg i.v."}, "[5]": {"molecular_target": "human GPVI, membrane expressed on platelets (human) (UniProt Q9HCN6)", "experiment": "flow cytometry ex vivo, hGP6^tg/tg platelets, 48 h after 4 mg/kg i.v."}, "[6]": {"molecular_target": "human GPVI, membrane expressed on platelets (human) (UniProt Q9HCN6)", "experiment": "flow cytometry ex vivo, hGP6^tg/tg platelets, competition with Emf3-FITC, 96 h after 4 mg/kg i.v."}, "[7]": {"molecular_target": "T1, human GPVI-Fc fusion protein (human, UniProt Q9HCN6 21-267, limits assumed)", "T1 construct": "also called human GPVI protein antigen", "T1 sequence (looked up)": "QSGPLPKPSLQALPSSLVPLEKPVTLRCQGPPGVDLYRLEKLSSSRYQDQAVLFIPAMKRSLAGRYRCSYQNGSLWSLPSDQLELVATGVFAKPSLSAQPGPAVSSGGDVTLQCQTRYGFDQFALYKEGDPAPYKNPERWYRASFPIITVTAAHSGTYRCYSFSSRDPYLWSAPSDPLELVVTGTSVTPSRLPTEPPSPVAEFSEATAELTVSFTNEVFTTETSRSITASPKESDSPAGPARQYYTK", "experiment": "method not stated at this place (BLI elsewhere); target printed as 'human GPVI'"}, "[8]": {"molecular_target": "human GPVI, membrane expressed on platelets (human) (UniProt Q9HCN6)", "experiment": "flow cytometry ex vivo, hGP6^tg/tg platelets, competition with Emf3-FITC, 1 h after 4 mg/kg i.v."}, "[9]": {"molecular_target": "human GPVI, membrane expressed on platelets (human) (UniProt Q9HCN6)", "experiment": "flow cytometry ex vivo, hGP6^tg/tg platelets, 72 h after 4 mg/kg i.v."}, "[10]": {"molecular_target": "human GPVI, membrane expressed on platelets (human) (UniProt Q9HCN6)", "experiment": "flow cytometry ex vivo, hGP6^tg/tg platelets, competition with Emf3-FITC, 48 h after 4 mg/kg i.v."}, "[11]": {"molecular_target": "T2, GPVI peptide 246S-P260 (human, not fully specified)", "T2 construct": "On the array as peptide-cellulose conjugate; as soluble (cleavable, Fmoc-rink-amide linker) peptide in the neutralisation; also called Ser246 to Pro260", "T2 peptide": "SITASPKESDSPAGP", "experiment": "peptide microarray, HRP anti-mouse IgG"}, "[12]": {"molecular_target": "T3, GPVI peptide 201V-E215 (human, not fully specified)", "T3 construct": "On the array as peptide-cellulose conjugate; as soluble (cleavable, Fmoc-rink-amide linker) peptide in the neutralisation; also called Val201 to Glu215", "T3 peptide": "VVTGTSVTPSRLPTE", "experiment": "peptide microarray, HRP anti-mouse IgG"}, "[13]": {"molecular_target": "human GPVI, membrane expressed on platelets (human) (UniProt Q9HCN6)", "experiment": "flow cytometry ex vivo, hGP6^tg/tg platelets, anti-human IgG-Fab-FITC, 1 h after 4 mg/kg i.v."}, "[14]": {"molecular_target": "T1, human GPVI-Fc fusion protein", "experiment": "BLI (Octet), GPVI-Fc on biosensor, 1:1 fit"}, "[15]": {"molecular_target": "human GPVI, membrane expressed on platelets (human) (UniProt Q9HCN6)", "experiment": "flow cytometry, hGP6^tg/tg platelets, anti-human IgG-Fab detection, EMA601 at 0.1 ug/mL"}, "[16]": {"molecular_target": "T1, human GPVI-Fc fusion protein", "experiment": "ratio of KD values (0.46 nM against 0.195 nM)"}, "[17]": {"molecular_target": "human GPVI, membrane expressed on platelets (human) (UniProt Q9HCN6)", "experiment": "flow cytometry, hGP6^tg/tg platelets, anti-human IgG-Fab detection, EMA601 at 0.2 ug/mL"}}, "note": "Ends that are not written are not given here.", "data": [{"binder": "B1", "values": [{"measurement": "% of the binding epitopes on GPVI occupied", "setting": "[1]", "result": 76, "unit": "%"}, {"measurement": "thrombus volume on collagen under flow (1000 s^-1), human blood", "setting": "[2]", "result": 75, "unit": "% reduction"}, {"measurement": "% of the binding epitopes on GPVI occupied", "setting": "[3]", "result": 13, "unit": "%"}, {"measurement": "% of the binding epitopes on GPVI occupied", "setting": "[4]", "result": 36, "unit": "%"}, {"measurement": "receptor occupancy", "setting": "[5]", "result": "> 50", "unit": "%"}, {"measurement": "% of the binding epitopes on GPVI occupied", "setting": "[6]", "result": 19, "unit": "%"}, {"measurement": "Kd", "setting": "[7]", "result": 460, "unit": "pM"}, {"measurement": "% of the binding epitopes on GPVI occupied", "setting": "[8]", "result": 90, "unit": "%"}, {"measurement": "receptor occupancy", "setting": "[9]", "result": "> 35", "unit": "%"}, {"measurement": "% of the binding epitopes on GPVI occupied", "setting": "[10]", "result": 50, "unit": "%"}]}, {"binder": "B2", "values": [{"measurement": "binding result", "setting": "[11]", "result": "binds"}, {"measurement": "binding result", "setting": "[12]", "result": "binds"}]}, {"binder": "B3", "values": [{"measurement": "fold amount of bound Fab against ACT017", "setting": "[13]", "result": 1.8, "unit": "fold"}, {"measurement": "collagen-induced aggregation of washed human platelets", "setting": "[2]", "result": 50, "unit": "% reduction"}, {"measurement": "potency to inhibit GPVI function in human and hGP6^tg/tg platelets in vitro, against ACT017", "setting": "[2]", "result": 10, "unit": "fold"}, {"measurement": "Kd", "setting": "[14]", "result": 195, "unit": "pM"}, {"measurement": "koff", "setting": "[14]", "result": 0.000123, "unit": "s⁻¹"}, {"measurement": "kon", "setting": "[14]", "result": 628000, "unit": "M⁻¹ s⁻¹"}, {"measurement": "% of the epitopes occupied compared to the highest tested concentration (50 µg/mL)", "setting": "[15]", "result": 57.3, "unit": "%"}, {"measurement": "fold increase of affinity against Emf6.1^Fab", "setting": "[16]", "result": "~2.3", "unit": "fold"}, {"measurement": "% of the epitopes occupied compared to the highest tested concentration (50 µg/mL)", "setting": "[17]", "result": 86.2, "unit": "%"}]}, {"binder": "B4", "values": [{"measurement": "Kd", "setting": "[14]", "result": 593, "unit": "pM"}, {"measurement": "koff", "setting": "[14]", "result": 0.000655, "unit": "s⁻¹"}, {"measurement": "kon", "setting": "[14]", "result": "1.1e+06", "unit": "M⁻¹ s⁻¹"}]}]}
